In patent publication US20240026407A1, “MODIFICATION OF SAPONINS” (GLAXOSMITHKLINE BIOLOGICALS SA, priority 2020, published 2024):

Columns and labels:
Type in all cases: biochemical, Quillaja saponaria
[1] = Experiment 6-3: screening of rhamnosidases for derhamnosylation of saponins in crude bark extract (80%), relative % of Left, Middle and Right Peak by UV HPLC; settings: CBE 80%, pH 7.4, 30 degC, 19.5 h; for Left Peak: mainly QS-17 family, negative control 27%; for Middle Peak: mainly QS-18 and desglucosyl-QS-17 family, negative control 48%; for Right Peak: mainly QS-21 family, negative control 26%
Summary of the method: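 Clarified lysates of expressed rhamnosidase variants were incubated with crude bark extract (pH 7.4, final 80%) at 30 degC with shaking for 19.5 h, then quenched with MeCN+2% AcOH. UV HPLC gave relative % of Left (QS-17), Middle (QS-18/desglucosyl-QS-17) and Right (QS-21) peaks.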

[2] = Experiment 6-1: screening of rhamnosidases for derhamnosylation of saponins in treated bark extract (2%), QS-17 2296 to QS-18 2150 (PAR %); settings: TBE 2%, pH 7.5, 30 degC, 18 h; TIC peak area ratio percent of rhamnosylated starting saponin to derhamnosylated product, LCMS/MS; negative controls 4.876, 5.225
[3] = Experiment 6-1: screening of rhamnosidases for derhamnosylation of saponins in treated bark extract (2%), desglucosyl-QS-17 2134 to QS-21 1988 (PAR %); settings: TBE 2%, pH 7.5, 30 degC, 18 h; TIC peak area ratio percent, LCMS/MS; negative controls 2.719, 2.158
[4] = Experiment 6-2: screening of rhamnosidases for derhamnosylation of saponins in treated bark extract (25%), relative % of Left, Middle and Right Peak by UV HPLC; settings: TBE 25%, pH 7.4, 19.5 h; for Left Peak: mainly QS-17 family, negative control 24%; for Middle Peak: mainly QS-18 and desglucosyl-QS-17 family, negative control 50%; for Right Peak: mainly QS-21 family, negative control 26%
[5] = Experiment 6-1: specificity of rhamnosidases towards other rhamnose residues (C3 saccharide rhamnose, C28 saccharide rhamnose); settings: TBE 2%, pH 7.5, 30 degC, 18 h; LCMS/MS; negative controls 0.18, 0.17
[6] = Experiment 6-1: screening of rhamnosidases for derhamnosylation of saponins in treated bark extract (2%), QS-17 2310 to QS-18 2164 (PAR %); settings: TBE 2%, pH 7.5, 30 degC, 18 h; TIC peak area ratio percent, LCMS/MS; negative controls 3.061, 2.429

B1: 1053 (protein, listed as Solibacter usitatus)
chain: MKRAALLILLAGTLFGAASVRPQQLRCEYRVNPQGIDVKDPRLSWILAPVNPKGRGLTQSAYRILVSSSEAALRGNSGDLWDSGKIVSAESTQVAYQGKPLNSGTAAFWKVQVWDQDGQPSDWSAPAQWSMGLLRAEDWKGRWIGRDEAGVYKDSASDYQLLERARWIWDAGNAQAGAPVGNRFFRAAFTVPAGRKVTRALSVIGADNTADVYLNGEPIAVESKLPLPHAVDITHLVRPGENVIAVRATHSRADRPAGLIGGVRVEFASGDPVLLQTSNQWRTVAKPDPGWENPGFLDAAWQASKDLGAFGMAPWEGVGFLAQHRLPGRLLRKEFALEKKLRRATVYYSGLGLSELYLNGAKVGDHVLSPGLTDYDKHVLYVTFDVTRQLVQGKNAIGLMLGNGRYYAPRNDVPIKTRDFGYPKALVQLDLEFEDGSRANVVSDETWKYSADGPIRANNEYDGEEYDARREIAGWNKAGFDDAGWEAAKIVGASSGAVVAQMAEPLRVTETVKPLGVKKLRPGVFVFDMGQNLVGWCRLRVTGPKGTQVKLRHSETLKDDGSLYVDNLRSAKAEDIYTLKGVGAEVYEPRFTYHGFRYVEVTGFPGEPSASALDARVVHDDMERAGEFTSSSGLLNKIHHNMFWGIRGNYRSIPTDCPQRDERQGWLGDRGQVSRSESYMFDVAGFYSKWMTDLEDSQRPSGSIPDVSPNYWPLYNDDLTWPGTIIFIHGMLYDQYGDKRVLARGYPAMKKWMDYEKTFVKDGLISKDQYADWCVPPEDPKLIHSQDPRRVTDKTLIATSYYYQFLRTMSRYARILDRPTDAADFDKQADQVQDTFQRRFFKLESGMYDNGTQTSSILPLYFGMIPADFRPAVVQTLVRNIELQSNGHVGTGLVGAQWLMRTLSDAGYADLAYKIATQKTYPGWGYMVEQGATTIWELWNGNTADPAMNSGNHVMQIGDLAVWMYEYLAGIRTDPEKPGFRHAVIRPYPAGDLSFVKATHKTMYGPLASSWKREKGEFMLDVTVPANTTATVWVPAKDAASVTESGKKATDVKGVKFVRSENGSAIFEVSSGAYSFKSGI
**Q.** Which “Left Peak” value [1] does the source give for B1 here?
**A.** 26%

**Q.** And the “Middle Peak” value [1]?
**A.** 48%

**Q.** And the “Right Peak” value [1]?
**A.** 26%

**Q.** And the “QS-17 (PAR %)” value [2]?
**A.** 1.127%

**Q.** What about the “Peak75 (PAR %)” value [3] of the same molecule?
**A.** 0.944%

**Q.** What about the “Left Peak” value [4] of the same molecule?
**A.** 20%

**Q.** And the “Middle Peak” value [4]?
**A.** 54%

**Q.** What about the “Right Peak” value [4] of the same molecule?
**A.** 26%

**Q.** And the “ratio PP/QS-21” value [5]?
**A.** 0.18

**Q.** What about the “Peak57 (PAR %)” value [6] of the same molecule?
**A.** 0.550%

B2: 989 (protein, listed as Rhodothermus marinus)
chain: MVLLFLGGAKEGAAQSNQALQVASLRTEYLVNPIGIEVRQPRLSWQLQSDRRDVRQVAYQIQVATSREALARGRDLVWDSGRVESDQSVFVPYGGPALQRRQRYYWRVRVWDNHGRSSAWSEPAFWEMGLLSPDEWRAQWITYNWEEDTSQPQPAPMLRRTFRVEGRVRRARLYITSLGLYEAHLNGRRVGDQLFTPGWTSYHHRLQYQTYDVTDLLRPGENALGVILGDGWYRGYLTWSVRRNVYGDRLALLAQLEITYEDGRTQVVTSDPDWKATTGPIRMSDIYMGEIYDARLEKEGWTEPGYDDSDWRGVRVLEHPKDILIAPIGPPVRRIQEIRPVAILYTPAGDTVVDMGQNMVGWVRLRVRGPAGTVVTLRHAEVLDKHGNFYTENLRRARQTDQYILKGEGEEVFEPHFTFHGFRYVAVSGYPGELTPEAITGIVIHSAFEPTGTWVSSDSLLNRLQLNIQWGMKGNFLDVPTDCPQRDERLGWTGDAQVFARTAMFNGLVGGFFTKWLGDVAADQSPEGAVPHVVPNVLPSFAGRFPGGATGWADAAVVIPWTMYQVYGDRRILEVQYPSMKAWVEYMRREAGDDLIWDTGFHFGDWLAFVPEENVRRAYPGATTGRDFLATAYFAYSTRLLAQAAEVIGKTDEARHYRQLYEAIREAFNREFVTPNGRVAQATQTAYTLAIQFDLLPEHLRAEAGRRLAEDVRAHNMHLTTGFLGTPQLLHALSNTGQLDVAYTLLRQTTYPSWLYQVKMGATTMWERWDSIKPDSTFQDPSMNSFNHYAYGSVGDWMYRVVAGIDTETPGYQRLRIAPQPGGGLKWVQARYHSLYGEVASSWELVDPQTFVLEVTIPPNTTATVRLPGAQLASVQEGRQPVQSAAGVHRAYQDGADVVVEVGSGTYRFTYSPSAELVRRIQTQPEVGQPVTMSF
**Q.** For B2, which “Left Peak” value [1] is on record?
**A.** 29%

**Q.** And the “Middle Peak” value [1]?
**A.** 43%

**Q.** What about the “Right Peak” value [1] of the same molecule?
**A.** 27%

**Q.** And the “QS-17 (PAR %)” value [2]?
**A.** 0.516%

**Q.** What about the “Peak75 (PAR %)” value [3] of the same molecule?
**A.** 0.478%

**Q.** What about the “Left Peak” value [4] of the same molecule?
**A.** 19%

**Q.** What about the “Middle Peak” value [4] of the same molecule?
**A.** 54%

**Q.** And the “Right Peak” value [4]?
**A.** 26%

**Q.** What about the “ratio PP/QS-21” value [5] of the same molecule?
**A.** 0.18

**Q.** And the “Peak57 (PAR %)” value [6]?
**A.** 0.305%

B3: 1018 (protein)
chain: MFELDRRALLLGLPVTSGALADGASQTSRWRAVGLRTAMRRQPLGIDDPQPMLSWRLEGPAGAVQSAYQIMVASTAEKLHAGVADLWDSGRVKSSESVGVRYGGAPLKPRQRCVWRVRAWDAAGRASDWSPPATWEMGLIDQSEWIGDWLAVEAADERDDRVAGVRWVETQTPKPHETCRFRLSFRSGGGEGRLAIMAEGKLSKLVLDGRSIELPWRDPNGYGDPPALGLPLQLEAGAHELIAEVTSTGPGEGPGRAALGAQVRVLAADGAARRIVDGWETEAAGAWTPAVVRTAQPHFPWPPTPARLLRRTFTLSKPPTQARLYVSALGGYRIWLNGRRVGDDELQTEPAAYRRHVPYRAYDVTDLLRDGENVVGLIVGDGTFASYQAPDGRYAYGPGPRRVRLFLESRDSGDRVERVATDGEWRHALSPVLMSEIYAGEDHDLRLWPRGWAEPGFDDSGWSRVWTAPPPEGAPCALLSEPIRETRVLKAASIRAVGPGRHIVDFGQNFAGRVRLRVKGAKGAPVIVRHAEILDGQGALDRRNLRVARAEDRYILNGDDAPETLQPSFTYQGFRYAEIEGVAGLDRDMIDGVVLSSDLPEIGVFRTAEPLVQNLWLNSLWSQRSNFMGIPTDCPQRDERLGWTGDAQVFWETAAFNMDVGGFTRGFARTLRDDQAPNGAYPMWSPSPRGLGWGTTTPTPGWADGGVMLPYVAYLHSGDRSIVDENWTAMSAYVSGVLAENPDGLWRRGRGADFGDWLALDGKWPGDETTPKDLIATAMLARSVDQLAQMAAWTGRSAEAKTWRGQADRIKAAFASAFVRADGTVGNGSHTGYILALRLGLAPQPLRKAAGEHLAADIRRRGTLLSTGFLGTPLALDALADHGHAGLAFDLLLRTEYPSWGYMVRRGATTTWERWNGDTGDVSMNSFNHYALGAICGFLYRRVAGVEPITPGFGAFRVAPLIDPRLRSAGATVDSVRGRIETDWRVTGDKAVLKVRVPANSRAEVVLPTLTRSLGAGDHTLSVPLAK
modifications: Caulobacter vibrioides
**Q.** For B3, which “Left Peak” value [1] is on record?
**A.** 26%

**Q.** And the “Middle Peak” value [1]?
**A.** 48%

**Q.** What about the “Right Peak” value [1] of the same molecule?
**A.** 26%

**Q.** What about the “QS-17 (PAR %)” value [2] of the same molecule?
**A.** 1.512%

**Q.** And the “Peak75 (PAR %)” value [3]?
**A.** 2.651%

**Q.** And the “Left Peak” value [4]?
**A.** 22%

**Q.** And the “Middle Peak” value [4]?
**A.** 52%

**Q.** What about the “Right Peak” value [4] of the same molecule?
**A.** 26%

**Q.** And the “ratio PP/QS-21” value [5]?
**A.** 0.17

**Q.** What about the “Peak57 (PAR %)” value [6] of the same molecule?
**A.** 0.547%

B4: 1066 (protein, listed as Caulobacter segnis)
chain: MQIDRRRVMLLGGAGSLVVAQGEAAPLGAAAISDCRVCGLETPLALGAATPRFSWRLSGPRPQAAYRITVARSAADLSAPRDLVWDSGKVASGQSFDIAFGGPAAAPRQVFWWRVEAWDDKGARAVGRPARWETGLLSASDWNAAWLAAEDATAKADRLAGVHWISGPESITDKTSKRCYRTSFEVPAQSDGTLFLAASGLAGVFLNGQELAAGEEEPTRFTTMSPYPLALRQGRNVIAIAQTPSRDLGGPQPMLCALIRLGGSERRLSTAEGWKTTVNAPEGWTLPDFDDGAWPAATTARNRPRGQPLPPGAATHLRRAFRLDKPVAQARLYATALGAYEAWINGAPADERKMAPEPTNLLERVLYQAYDVTAALRAGDNVLGLWVGDGWYASEFSANARFCFGPAPCRAMAQLEILFIDGSRQVIATDDQWRIAPSAILTSEIYDGEVYDARQEIKDWALPGTPQGGWRPAETVEAPNLPIDPQVSPPIRVTQRLKPKAVTSPKPGVHVFDFGQNFAGWAELAISGKAGTRIELLFGEYLKPDGQVDQANLRTAFARDTYVLKGQGREVWSPRFTYHGFRYVEVRGLANAPAADLLTGLVGHNDIRVSGVLRVGAPVVEQFWRNSVWSQRSNFFGLPTDCPQRDERLGWLGDAAVFWPAAAYNMDVEAFTRRFMGDVRRAQRPDGQFPDCIPPFMVPSSRSAPGWSDAGVILPYTAWRQYGDTGVIAENWEAMERYLAFILAKNPDYLWKSSKGNDYGDWLAVDAKYLGEATTPKDLIGTAFWAADAAMMRDMAKAIGKAEAAERYRALFEAIRAAFAGAYVQADGKIGNGSQTSYILAIRFGLLSPEQASEAGRRLAADIAARGGKLSTGFLGTPHILDALADTGHEATAVGLLLQRDYPSWGYMVTKGATTMWERWNSDTGDLSMNSYNHYAFGAIGDFLFRRIAGLAAVEPGFAKVVIAPIFDRRLGSAGADYDSVSGRLSSNWRYEGDTVRLDLSIPPGVQAEVVIPTAARAVRVDGRPVPSARFRVERGQHRVVFTA
**Q.** Which results are given for B4?
**A.** Left Peak [1]: 26%; Middle Peak [1]: 48%; Right Peak [1]: 27%; QS-17 (PAR %) [2]: 2.194%; Peak75 (PAR %) [3]: 1.220%; Left Peak [4]: 20%; Middle Peak [4]: 53%; Right Peak [4]: 27%; ratio PP/QS-21 [5]: 0.18; Peak57 (PAR %) [6]: 0.896%
